Laboratory results: patent publication US20250304650A1
Positions count from the first letter of the chain named. Numbers in names are those of the source.

B1: anti-NGF feline IgG1a, Fc variant S434Y, S254K (antibody, part only; not given: anti-NGF variable domains, light chain, not shown: another chain or arm of the molecule; small tags and cut ends)
Fc: PPEMLGGPSIFIFPPKPKDTLSIKRTPEVTCLVVDLGPDDSDVQITWFVDNTQVYTAKTSPREEQFNSTYRVVSVLPILHQDWLKGKEFKCKVNSKSLPSPIERTISKAKGQPHEPQVYVLPPAQEELSRNKVSVTCLIKSFHPPDIAVEWEITGQPEPENNYRTTPPQLDSDGTYFVYSKLSVDRSHWQRGNTYTCSVSHEALHYHHTQKSLTQSPGK
B2: anti-NGF feline IgG1a with wild-type Fc (antibody, part only; not given: anti-NGF variable domains, not shown: another chain or arm of the molecule; small tags and cut ends)
Fc: B1 Fc with K24S, Y206S
B3: anti-NGF feline IgG1a, Fc variant L309E (antibody, part only; not given: anti-NGF variable domains, light chain, not shown: another chain or arm of the molecule; small tags and cut ends)
Fc: B1 Fc with K24S, L79E, Y206S
B4: anti-NGF feline IgG1a, Fc variant S428L, E380T, S434R (antibody, part only; not given: anti-NGF variable domains, not shown: another chain or arm of the molecule; small tags and cut ends)
Fc: B1 Fc with K24S, E150T, S200L, Y206R
B5: anti-NGF feline IgG1a, Fc variant Q311R (antibody, part only; not given: Anti-NGF variable domains, not shown: another chain or arm of the molecule; small tags and cut ends)
Fc: B1 Fc with K24S, Q81R, Y206S
B6: anti-NGF feline IgG1a, Fc variant S434Y, K326D (antibody, part only; not given: anti-NGF variable domains, light chain, not shown: another chain or arm of the molecule; small tags and cut ends)
Fc: B1 Fc with K24S, K96D
B7: anti-NGF feline IgG1a, Fc variant S434Y, E293K (antibody, part only; not given: anti-NGF variable domains, light chain, not shown: another chain or arm of the molecule; small tags and cut ends)
Fc: B1 Fc with K24S, E63K
B8: anti-NGF feline IgG1a, Fc variant S252R, A378E (antibody, part only; not given: Anti-NGF variable domains, not shown: another chain or arm of the molecule; small tags and cut ends)
Fc: B1 Fc with S22R, K24S, A148E, Y206S
B9: anti-NGF feline IgG1a, Fc variant S252R, L262Q (antibody, part only; not given: anti-NGF variable domains, light chain, not shown: another chain or arm of the molecule; small tags and cut ends)
Fc: B1 Fc with S22R, K24S, L32Q, Y206S
B10: anti-NGF feline IgG1a, Fc variant S428L, Q311K (antibody, part only; not given: anti-NGF variable domains, light chain, not shown: another chain or arm of the molecule; small tags and cut ends)
Fc: B1 Fc with K24S, Q81K, S200L, Y206S
B11: anti-NGF feline IgG1a, Fc variant T260E, L309E, Q355L (antibody, part only; not given: anti-NGF variable domains, not shown: another chain or arm of the molecule; small tags and cut ends)
Fc: B1 Fc with K24S, T30E, L79E, Q125L, Y206S
B12: anti-NGF feline IgG1a, Fc variant S434Y, Q347L (antibody, part only; not given: Anti-NGF variable domains, not shown: another chain or arm of the molecule; small tags and cut ends)
Fc: B1 Fc with K24S, Q117L
B13: anti-NGF feline IgG1a, Fc variant S428L, T286E (antibody, part only; not given: anti-NGF variable domains, not shown: another chain or arm of the molecule; small tags and cut ends)
Fc: B1 Fc with K24S, T56E, S200L, Y206S
B14: anti-NGF feline IgG1a, Fc variant R301L, E380V, T437L (antibody, part only; not given: anti-NGF variable domains, light chain, not shown: another chain or arm of the molecule; small tags and cut ends)
Fc: B1 Fc with K24S, R71L, E150V, Y206S, T209L
B15: anti-NGF feline IgG1a, Fc variant S434Y, E293D (antibody, part only; not given: anti-NGF variable domains, light chain, not shown: another chain or arm of the molecule; small tags and cut ends)
Fc: B1 Fc with K24S, E63D
B16: anti-NGF feline IgG1a, Fc variant R392E (antibody, part only; not given: anti-NGF variable domains, light chain, not shown: another chain or arm of the molecule; small tags and cut ends)
Fc: B1 Fc with K24S, R164E, Y206S
B17: anti-NGF feline IgG1a, Fc variant S290Y (antibody, part only; not given: anti-NGF variable domains, not shown: another chain or arm of the molecule; small tags and cut ends)
Fc: B1 Fc with K24S, S60Y, Y206S
B18: anti-NGF feline IgG1a, Fc variant T286E (antibody, part only; not given: anti-NGF variable domains, light chain, not shown: another chain or arm of the molecule; small tags and cut ends)
Fc: B1 Fc with K24S, T56E, Y206S
B19: anti-NGF feline IgG1a, Fc variant S428L (antibody, part only; not given: Anti-NGF variable domains, not shown: another chain or arm of the molecule; small tags and cut ends)
Fc: B1 Fc with K24S, S200L, Y206S
B20: anti-NGF feline IgG1a, Fc variant S434Y, T286E (antibody, part only; not given: anti-NGF variable domains, light chain, not shown: another chain or arm of the molecule; small tags and cut ends)
Fc: B1 Fc with K24S, T56E
B21: anti-NGF feline IgG1a, Fc variant T286D (antibody, part only; not given: anti-NGF variable domains, not shown: another chain or arm of the molecule; small tags and cut ends)
Fc: B1 Fc with K24S, T56D, Y206S
B22: anti-NGF feline IgG1a, Fc variant S428L, I377V (antibody, part only; not given: anti-NGF variable domains, not shown: another chain or arm of the molecule; small tags and cut ends)
Fc: B1 Fc with K24S, I147V, S200L, Y206S
B23: anti-NGF feline IgG1a, Fc variant L309V (antibody, part only; not given: anti-NGF variable domains, light chain, not shown: another chain or arm of the molecule; small tags and cut ends)
Fc: B1 Fc with K24S, L79V, Y206S
B24: anti-NGF feline IgG1a, Fc variant S290V, R334D (antibody, part only; not given: anti-NGF variable domains, light chain, not shown: another chain or arm of the molecule; small tags and cut ends)
Fc: B1 Fc with K24S, S60V, R104D, Y206S
B25: anti-NGF feline IgG1a, Fc variant S434F, E380D (antibody, part only; not given: anti-NGF variable domains, light chain, not shown: another chain or arm of the molecule; small tags and cut ends)
Fc: B1 Fc with K24S, E150D, Y206F
B26: anti-NGF feline IgG1a, Fc variant S428L, N389c-R (antibody, part only; not given: anti-NGF variable domains, light chain, not shown: another chain or arm of the molecule; small tags and cut ends)
Fc: B1 Fc with K24S, N161R, S200L, Y206S
B27: anti-NGF feline IgG1a, Fc variant S428L, E380D, S434R (antibody, part only; not given: Anti-NGF variable domains, not shown: another chain or arm of the molecule; small tags and cut ends)
Fc: B1 Fc with K24S, E150D, S200L, Y206R
B28: anti-NGF feline IgG1a, Fc variant S428L, S252R (antibody, part only; not given: anti-NGF variable domains, not shown: another chain or arm of the molecule; small tags and cut ends)
Fc: B1 Fc with S22R, K24S, S200L, Y206S
B29: anti-NGF feline IgG1a, Fc variant S428L, Q311V (antibody, part only; not given: Anti-NGF variable domains, not shown: another chain or arm of the molecule; small tags and cut ends)
Fc: B1 Fc with K24S, Q81V, S200L, Y206S
B30: anti-NGF feline IgG1a, Fc variant S434Y, L309V (antibody, part only; not given: anti-NGF variable domains, light chain, not shown: another chain or arm of the molecule; small tags and cut ends)
Fc: B1 Fc with K24S, L79V
B31: anti-NGF feline IgG1a, Fc variant S428L, D312T (antibody, part only; not given: anti-NGF variable domains, not shown: another chain or arm of the molecule; small tags and cut ends)
Fc: B1 Fc with K24S, D82T, S200L, Y206S
B32: anti-NGF feline IgG1a, Fc variant S254K (antibody, part only; not given: Anti-NGF variable domains, not shown: another chain or arm of the molecule; small tags and cut ends)
Fc: B1 Fc with Y206S
B33: anti-NGF feline IgG1a, Fc variant S434Y, L262E (antibody, part only; not given: Anti-NGF variable domains, not shown: another chain or arm of the molecule; small tags and cut ends)
Fc: B1 Fc with K24S, L32E
B34: anti-NGF feline IgG1a, Fc variant S428L, I383L (antibody, part only; not given: anti-NGF variable domains, light chain, not shown: another chain or arm of the molecule; small tags and cut ends)
Fc: B1 Fc with K24S, I153L, S200L, Y206S
B35: anti-NGF feline IgG1a, Fc variant S434Y, L309E (antibody, part only; not given: Anti-NGF variable domains, not shown: another chain or arm of the molecule; small tags and cut ends)
Fc: B1 Fc with K24S, L79E
B36: anti-NGF feline IgG1a, Fc variant S434F (antibody, part only; not given: anti-NGF variable domains, light chain, not shown: another chain or arm of the molecule; small tags and cut ends)
Fc: B1 Fc with K24S, Y206F
B37: anti-NGF feline IgG1a, Fc variant S434Y, T289K (antibody, part only; not given: Anti-NGF variable domains, not shown: another chain or arm of the molecule; small tags and cut ends)
Fc: B1 Fc with K24S, T59K
B38: anti-NGF feline IgG1a, Fc variant S434Y, T286D (antibody, part only; not given: anti-NGF variable domains, not shown: another chain or arm of the molecule; small tags and cut ends)
Fc: B1 Fc with K24S, T56D
B39: anti-NGF feline IgG1a, Fc variant R301L (antibody, part only; not given: anti-NGF variable domains, not shown: another chain or arm of the molecule; small tags and cut ends)
Fc: B1 Fc with K24S, R71L, Y206S
B40: anti-NGF feline IgG1a, Fc variant E293H (antibody, part only; not given: anti-NGF variable domains, light chain, not shown: another chain or arm of the molecule; small tags and cut ends)
Fc: B1 Fc with K24S, E63H, Y206S

Biological target: feline FcRn (FCN-F82W3, Acrobiosystems) (feline)
Assay: SPR Carterra, IgG coupled, pH 6.0

Binder	Kd	koff	kon
B1	3.1 nM	0.00504 s⁻¹	1.61e+06 M⁻¹ s⁻¹
B2	233 nM	0.11 s⁻¹	472000 M⁻¹ s⁻¹
B3	102 nM	0.0415 s⁻¹	406000 M⁻¹ s⁻¹
B4	3.8 nM	0.012 s⁻¹	3.17e+06 M⁻¹ s⁻¹
B5	59.2 nM	0.0116 s⁻¹	196000 M⁻¹ s⁻¹
B6	4 nM	0.00549 s⁻¹	1.38e+06 M⁻¹ s⁻¹
B7	4.1 nM	0.00501 s⁻¹	1.22e+06 M⁻¹ s⁻¹
B8	35.3 nM	0.00927 s⁻¹	262000 M⁻¹ s⁻¹
B9	4.9 nM	0.00795 s⁻¹	1.63e+06 M⁻¹ s⁻¹
B10	10.5 nM	0.0101 s⁻¹	958000 M⁻¹ s⁻¹
B11	9.9 nM	0.00977 s⁻¹	983000 M⁻¹ s⁻¹
B12	3.4 nM	0.00667 s⁻¹	1.98e+06 M⁻¹ s⁻¹
B13	8.6 nM	0.00987 s⁻¹	1.15e+06 M⁻¹ s⁻¹
B14	10.7 nM	0.0123 s⁻¹	1.15e+06 M⁻¹ s⁻¹
B15	3.4 nM	0.00534 s⁻¹	1.57e+06 M⁻¹ s⁻¹
B16	24.5 nM	0.0324 s⁻¹	1.33e+06 M⁻¹ s⁻¹
B17	128 nM	0.0849 s⁻¹	661000 M⁻¹ s⁻¹
B18	93.4 nM	0.0457 s⁻¹	489000 M⁻¹ s⁻¹
B19	16.7 nM	0.0241 s⁻¹	1.45e+06 M⁻¹ s⁻¹
B20	3.6 nM	0.00345 s⁻¹	965000 M⁻¹ s⁻¹

Binder	Kd	koff	kon
B21	97.4 nM	0.0389 s⁻¹	400000 M⁻¹ s⁻¹
B22	10.8 nM	0.0183 s⁻¹	1.69e+06 M⁻¹ s⁻¹
B23	127 nM	0.045 s⁻¹	353000 M⁻¹ s⁻¹
B24	10.7 nM	0.00997 s⁻¹	931000 M⁻¹ s⁻¹
B25	3.3 nM	0.00583 s⁻¹	1.77e+06 M⁻¹ s⁻¹
B26	9.6 nM	0.0109 s⁻¹	1.14e+06 M⁻¹ s⁻¹
B27	8 nM	0.00973 s⁻¹	1.22e+06 M⁻¹ s⁻¹
B28	9 nM	0.00873 s⁻¹	974000 M⁻¹ s⁻¹
B29	11.7 nM	0.0107 s⁻¹	916000 M⁻¹ s⁻¹
B30	1.8 nM	0.004 s⁻¹	2.21e+06 M⁻¹ s⁻¹
B31	11.2 nM	0.0113 s⁻¹	1.01e+06 M⁻¹ s⁻¹
B32	107 nM	0.0557 s⁻¹	521000 M⁻¹ s⁻¹
B33	3.3 nM	0.00498 s⁻¹	1.51e+06 M⁻¹ s⁻¹
B34	9.9 nM	0.0162 s⁻¹	1.63e+06 M⁻¹ s⁻¹
B35	4.1 nM	0.00458 s⁻¹	1.13e+06 M⁻¹ s⁻¹
B36	4.2 nM	0.00718 s⁻¹	1.73e+06 M⁻¹ s⁻¹
B37	3.6 nM	0.00559 s⁻¹	1.53e+06 M⁻¹ s⁻¹
B38	2.9 nM	0.00371 s⁻¹	1.28e+06 M⁻¹ s⁻¹
B39	95.2 nM	0.0435 s⁻¹	457000 M⁻¹ s⁻¹
B40	146 nM	0.0665 s⁻¹	455000 M⁻¹ s⁻¹
